# T1: CpgD (CCNA_01210) (Caulobacter vibrioides, UniProt A0A0H3C7D9)
# T1 construct: expressed in E. coli ER2566; primers encode N-terminus MQPVKT, C-terminus EAEAV
# T1 sequence (A0A0H3C7D9 1-253): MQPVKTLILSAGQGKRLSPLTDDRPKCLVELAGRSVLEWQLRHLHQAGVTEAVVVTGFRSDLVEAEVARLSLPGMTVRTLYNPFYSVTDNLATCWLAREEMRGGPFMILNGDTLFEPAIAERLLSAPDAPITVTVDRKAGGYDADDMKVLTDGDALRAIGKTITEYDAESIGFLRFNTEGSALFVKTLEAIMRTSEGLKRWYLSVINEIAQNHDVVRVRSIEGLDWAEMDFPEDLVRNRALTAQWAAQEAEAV
# What was measured:
# CpgD (CCNA_01210) = biological target: T1, CpgD (CCNA_01210); experiment: thermal shift assay (GloMelt dye); format: binding; conditions: 10 mM nucleotide, 50 mM MgCl2, 50 mM HEPES pH 7.5; Tm change only in figure
# [1] = substrate: O=C(O)[C@H](CO)OP(=O)(O)O; experiment: HPAEC quantification of CDP-glycerate; format: biochemical, Caulobacter vibrioides; conditions: 10 mM CTP, 50 mM MgCl2, 50 mM HEPES pH 7.5, 45 min; pH 7.5
# From the text: (§1) HPAEC quantification of CDP-glycerate on CpgD (CCNA_01210)
# [2] = substrate: O=C(O)[C@@H](CO)OP(=O)(O)O; experiment: HPAEC quantification of CDP-glycerate; format: biochemical, Caulobacter vibrioides; conditions: 10 mM CTP, 50 mM MgCl2, 50 mM HEPES pH 7.5, 45 min; pH 7.5
# From the text: as §1
# [3] = substrate: O=C(O)[C@H](O)COP(=O)(O)O; experiment: HPAEC quantification of CDP-glycerate; format: biochemical, Caulobacter vibrioides; conditions: 10 mM CTP, 50 mM MgCl2, 50 mM Tris pH 8.0, 3.5 h; pH 8.0
# From the text: as §1
# [4] = substrate: Nc1ccn([C@@H]2O[C@H](COP(=O)(O)OP(=O)(O)OP(=O)(O)O)[C@@H](O)[C@H]2O)c(=O)n1; experiment: HPAEC quantification of CDP-glycerate; format: biochemical, Caulobacter vibrioides
# From the text: as §1
# [5] = 10 mM 3-phosphoglycerate, 50 mM MgCl2, 50 mM Tris pH 8.0, 3.5 h, Michaelis-Menten fit, pH 8.0
# [6] = 10 mM D-2-phosphoglycerate, 50 mM MgCl2, 50 mM HEPES pH 7.5, 45 min, Hill fit, cooperative (Hill coefficient 2.5), pH 7.5
molecule,measurement,setting,value
Nc1ccn([C@@H]2O[C@H](COP(=O)(O)OP(=O)(O)OP(=O)(O)O)[C@@H](O)[C@H]2O)c(=O)n1 [CTP],Tm,CpgD (CCNA_01210),increase in the melting temperature of the protein was only observed upon addition of CTP
Nc1ncnc2c1ncn2[C@@H]1O[C@H](COP(=O)(O)OP(=O)(O)OP(=O)(O)O)[C@@H](O)[C@H]1O [ATP],Tm,CpgD (CCNA_01210),we consistently measured a lower melting temperature in the presence of ATP
"CpgD (CCNA_01210) (Caulobacter vibrioides NA1000) (protein, expressed in E. coli ER2566; primers encode N-terminus MQPVKT, C-terminus EAEAV) MQPVKTLILSAGQGKRLSPLTDDRPKCLVELAGRSVLEWQLRHLHQAGVTEAVVVTGFRSDLVEAEVARLSLPGMTVRTLYNPFYSVTDNLATCWLAREEMRGGPFMILNGDTLFEPAIAERLLSAPDAPITVTVDRKAGGYDADDMKVLTDGDALRAIGKTITEYDAESIGFLRFNTEGSALFVKTLEAIMRTSEGLKRWYLSVINEIAQNHDVVRVRSIEGLDWAEMDFPEDLVRNRALTAQWAAQEAEAV",Km,[1],3.1 ± 0.6 mM
same,Vmax,[1],1.5 µmol/min/mg
same,Km,[2],0.84 ± 0.16 mM
same,Vmax,[2],3.2 µmol/min/mg
same,Km,[3],10.9 ± 0.7 mM
same,Vmax,[3],0.72 µmol/min/mg
same,Km,[4]; [5],4.8 ± 0.9 mM
same,Vmax,[4]; [5],0.4 µmol/min/mg
same,K0.5,[4]; [6],6.4 ± 0.8 mM
same,Vmax,[4]; [6],3.6 µmol/min/mg

# Source: article PMC12275187, “CpgD is a phosphoglycerate cytidylyltransferase required for ceramide diphosphoglycerate synthesis” (The Journal of Biological Chemistry, 2025)
